± gives the uncertainty stated by the source.
B1: Zinc finger homeobox protein 3, residues 2147 to 2202; numbered along this chain, Q15911 (parent)
chain: RPRTRITDDQLRVLRQYFDINNSPSEEQIKEMADKSGLPQKVIKHWFRNTLFKERQ

Variants of: B1
Assay: abundance fitness (aPCA) (normalised: wild type 0, dead -1); higher = more abundant; growth selection in yeast, the domain comes from the species named
Conditions: Homo sapiens

Point of comparison: RPRTRITDDQLRVLRQYFDINNSPSEEQIKEMADKSGLPQKVIKHWFRNTLFCERQ [K53C], abundance fitness -0.269 ± 0.14. Against it:
- RPRTRITDDQLRVLRQYFDINNSPSEEQIKEMADKSGLPQKVIKHWVRNTLFKERQ [F47V] — within error, -0.17 ± 0.087
- RPRTRITDDQLRVLRQYFDINNSPSEEQIKEMADKSGLPQKVIKHWWRNTLFKERQ [F47W] — within error, -0.188 ± 0.11
- RPRTRITDDQLRVLRQYFDINNSPSEEQIKEMADKSGLPQKVIKHWSRNTLFKERQ [F47S] — lower, -0.632 ± 0.093
- RPRTRITDDQLRVLRQYFDINNSPSEEQIKEMADKSGLPQKVIKHWYRNTLFKERQ [F47Y] — within error, -0.273 ± 0.19
- RPRTRITDDQLRVLRQYFDINNSPSEEQIKEMADKSGLPQKVIKHWFRNNLFKERQ [T50N] — within error, -0.044 ± 0.15
- RPRTRITDDQLRVLRQYFDINNSPSEEQIKEMADKSGLPQKVIKHWFRNILFKERQ [T50I] — within error, -0.262 ± 0.15
- RPRTRITDDQLRVLRQYFDINNSPSEEQIKEMADKSGLPQKVIKHWFRNDLFKERQ [T50D] — within error, -0.264 ± 0.18
- RPRTRITDDQLRVLRQYFDINNSPSEEQIKEMADKSGLPQKVIKHWFRNELFKERQ [T50E] — within error, -0.047 ± 0.12
- RPRTRITDDQLRVLRQYFDINNSPSEEQIKEMADKSGLPQKVIKHWFRNHLFKERQ [T50H] — within error, -0.048 ± 0.2
- RPRTRITDDQLRVLRQYFDINNSPSEEQIKEMADKSGLPQKVIKHWFRNRLFKERQ [T50R] — within error, -0.068 ± 0.096
- RPRTRITDDQLRVLRQYFDINNSPSEEQIKEMADKSGLPQKVIKHWFRNCLFKERQ [T50C] — within error, -0.314 ± 0.17
- RPRTRITDDQLRVLRQYFDINNSPSEEQIKEMADKSGLPQKVIKHWFRNGLFKERQ [T50G] — within error, -0.187 ± 0.086
- RPRTRITDDQLRVLRQYFDINNSPSEEQIKEMADKSGLPQKVIKHWFRNVLFKERQ [T50V] — within error, -0.078 ± 0.097
- RPRTRITDDQLRVLRQYFDINNSPSEEQIKEMADKSGLPQKVIKHWFRNKLFKERQ [T50K] — higher, 0.094 ± 0.17
- RPRTRITDDQLRVLRQYFDINNSPSEEQIKEMADKSGLPQKVIKHWFRNALFKERQ [T50A] — within error, -0.11 ± 0.1
- RPRTRITDDQLRVLRQYFDINNSPSEEQIKEMADKSGLPQKVIKHWFRNLLFKERQ [T50L] — within error, -0.17 ± 0.11
- RPRTRITDDQLRVLRQYFDINNSPSEEQIKEMADKSGLPQKVIKHWFRNMLFKERQ [T50M] — within error, -0.051 ± 0.24
- RPRTRITDDQLRVLRQYFDINNSPSEEQIKEMADKSGLPQKVIKHWFRNSLFKERQ [T50S] — within error, -0.016 ± 0.12
- RPRTRITDDQLRVLRQYFDINNSPSEEQIKEMADKSGLPQKVIKHWFRNFLFKERQ [T50F] — within error, -0.341 ± 0.2
- RPRTRITDDQLRVLRQYFDINNSPSEEQIKEMADKSGLPQKVIKHWFRNQLFKERQ [T50Q] — within error, -0.16 ± 0.19
- RPRTRITDDQLRVLRQYFDINNSPSEEQIKEMADKSGLPQKVIKHWFRNPLFKERQ [T50P] — within error, -0.335 ± 0.16
- RPRTRITDDQLRVLRQYFDINNSPSEEQIKEMADKSGLPQKVIKHWFRNTEFKERQ [L51E] — within error, -0.116 ± 0.1
- RPRTRITDDQLRVLRQYFDINNSPSEEQIKEMADKSGLPQKVIKHWFRNTVFKERQ [L51V] — within error, -0.119 ± 0.077
- RPRTRITDDQLRVLRQYFDINNSPSEEQIKEMADKSGLPQKVIKHWFRNTTFKERQ [L51T] — within error, -0.059 ± 0.096
- RPRTRITDDQLRVLRQYFDINNSPSEEQIKEMADKSGLPQKVIKHWFRNTCFKERQ [L51C] — within error, -0.088 ± 0.11
- RPRTRITDDQLRVLRQYFDINNSPSEEQIKEMADKSGLPQKVIKHWFRNTNFKERQ [L51N] — within error, -0.014 ± 0.14
- RPRTRITDDQLRVLRQYFDINNSPSEEQIKEMADKSGLPQKVIKHWFRNTKFKERQ [L51K] — higher, 0.244 ± 0.13
- RPRTRITDDQLRVLRQYFDINNSPSEEQIKEMADKSGLPQKVIKHWFRNTHFKERQ [L51H] — higher, 0.016 ± 0.13
- RPRTRITDDQLRVLRQYFDINNSPSEEQIKEMADKSGLPQKVIKHWFRNTPFKERQ [L51P] — within error, -0.224 ± 0.11
- RPRTRITDDQLRVLRQYFDINNSPSEEQIKEMADKSGLPQKVIKHWFRNTGFKERQ [L51G] — within error, -0.073 ± 0.07
- RPRTRITDDQLRVLRQYFDINNSPSEEQIKEMADKSGLPQKVIKHWFRNTMFKERQ [L51M] — higher, 0.047 ± 0.12
- RPRTRITDDQLRVLRQYFDINNSPSEEQIKEMADKSGLPQKVIKHWFRNTSFKERQ [L51S] — higher, 0.015 ± 0.083
- RPRTRITDDQLRVLRQYFDINNSPSEEQIKEMADKSGLPQKVIKHWFRNTYFKERQ [L51Y] — within error, -0.007 ± 0.21
- RPRTRITDDQLRVLRQYFDINNSPSEEQIKEMADKSGLPQKVIKHWFRNTRFKERQ [L51R] — higher, -0.013 ± 0.07
- RPRTRITDDQLRVLRQYFDINNSPSEEQIKEMADKSGLPQKVIKHWFRNTIFKERQ [L51I] — within error, -0.232 ± 0.14
- RPRTRITDDQLRVLRQYFDINNSPSEEQIKEMADKSGLPQKVIKHWFRNTWFKERQ [L51W] — within error, -0.34 ± 0.086
- RPRTRITDDQLRVLRQYFDINNSPSEEQIKEMADKSGLPQKVIKHWFRNTFFKERQ [L51F] — within error, -0.214 ± 0.13
- RPRTRITDDQLRVLRQYFDINNSPSEEQIKEMADKSGLPQKVIKHWFRNTAFKERQ [L51A] — higher, -0.037 ± 0.076
- RPRTRITDDQLRVLRQYFDINNSPSEEQIKEMADKSGLPQKVIKHWFRNTQFKERQ [L51Q] — higher, 0.044 ± 0.11
- RPRTRITDDQLRVLRQYFDINNSPSEEQIKEMADKSGLPQKVIKHWFRNTLFDERQ [K53D] — within error, -0.18 ± 0.17
- RPRTRITDDQLRVLRQYFDINNSPSEEQIKEMADKSGLPQKVIKHWFRNTLFAERQ [K53A] — higher, 0.017 ± 0.083
- RPRTRITDDQLRVLRQYFDINNSPSEEQIKEMADKSGLPQKVIKHWFGNTLFKERQ [R48G] — within error, -0.118 ± 0.068
- RPRTRITDDQLRVLRQYFDINNSPSEEQIKEMADKSGLPQKVIKHWFHNTLFKERQ [R48H] — within error, -0.064 ± 0.21
- RPRTRITDDQLRVLRQYFDINNSPSEEQIKEMADKSGLPQKVIKHWFKNTLFKERQ [R48K] — higher, 0.107 ± 0.13
- RPRTRITDDQLRVLRQYFDINNSPSEEQIKEMADKSGLPQKVIKHWFENTLFKERQ [R48E] — higher, 0.057 ± 0.12
- RPRTRITDDQLRVLRQYFDINNSPSEEQIKEMADKSGLPQKVIKHWFCNTLFKERQ [R48C] — within error, -0.446 ± 0.14

— the Human Domainome abundance scans (Beltran et al. 2025)
